The values that follow come from patent US20090075881A1.

This experiment has as its target fibrinogen complex (FC) component of TISSEEL VH S/D. In words: SPR; FC coupled to sensor chip, PDGF-AB as analyte in PBS pH 7.4; KD = Koff/Kon by two methods. In general terms: In SPR one partner is held on a chip, and binding of the other changes the refractive index at the surface.

The Kd is the equilibrium constant for the complex coming apart. A low value points to tighter binding. Regarding “recombinant human PDGF-AB (from UniProt P04085 87-211; P01127 82-190) (ligand)”, the Kd is 342 nM.
